According to IntAct's records for PubMed 12907709:

B1: DNA-directed RNA polymerase II subunit rpb7 (Schizosaccharomyces pombe (strain ATCC 38366 / 972)), O14459 (parent)
chain: MPFFLKELSLTISLHPSYFGPRMQDYLKAKLLADVEGTCSGQYGYIICVLDSNTIDIDKGRVVPGQGFAEFEVKYRAVLWRPFRGEVVDAIVTTVNKMGFFANIGPLNVFVSSHLVPPDMKFDPTANPPNYSGEDQVIEKGSNVRLKIVGTRTDATEIFAIATMKEDYLGVL
partner: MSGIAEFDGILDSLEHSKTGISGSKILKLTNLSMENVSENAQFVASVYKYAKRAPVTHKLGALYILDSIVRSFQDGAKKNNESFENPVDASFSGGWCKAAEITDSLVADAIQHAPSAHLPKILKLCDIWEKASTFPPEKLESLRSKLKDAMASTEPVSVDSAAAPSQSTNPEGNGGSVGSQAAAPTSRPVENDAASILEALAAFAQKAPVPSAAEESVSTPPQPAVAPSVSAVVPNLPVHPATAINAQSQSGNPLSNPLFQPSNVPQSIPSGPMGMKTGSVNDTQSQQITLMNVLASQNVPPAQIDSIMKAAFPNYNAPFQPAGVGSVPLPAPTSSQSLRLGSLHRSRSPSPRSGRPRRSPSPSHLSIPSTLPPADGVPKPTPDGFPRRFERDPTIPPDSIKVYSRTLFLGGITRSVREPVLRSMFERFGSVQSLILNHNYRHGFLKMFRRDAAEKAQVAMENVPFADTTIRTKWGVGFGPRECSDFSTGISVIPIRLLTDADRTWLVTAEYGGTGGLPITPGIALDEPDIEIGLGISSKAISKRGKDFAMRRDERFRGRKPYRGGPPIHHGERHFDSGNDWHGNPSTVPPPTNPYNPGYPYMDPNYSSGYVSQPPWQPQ

Variants of: B1
Conditions: with seb1_schpo seb1, Q9UTE3

| effect of a mutation on the interaction | Variant |
| --- | --- |
| disrupting interaction | E166R;D167A |
